This is an account of results in US20230028110A1 (ADAPTATE BIOTHERAPEUTICS, published 2023).

Assay [1] deals with T1, L1 (DV1-GV4), soluble human Vδ1/Vγ4 γδ TCR heterodimer in leucine zipper format (human).
T1 construct: Biotinylated in the DELFIA ranking; also called Antigen L1 (TRDV1/TRGV4); human DV1-GV4; not shown: gamma chain: Vγ4 (TRGV4) domain on a TCR constant region, leucine zipper, histidine tag
Put plainly: SPR (Reichert 4SPR), antibody on Protein A chip, antigen flown over.

The target in another assay is T2, Recombinant human PD-1 (human, UniProt Q15116 25-167, limits assumed).
T2 construct: also called programmed cell death protein 1
Put plainly: SPR (Reichert 4SPR), antibody on Protein A chip, antigen flown over; column head prints TIGIT.

Assay [2] has as its target T3, Vδ1 chain of the γδ TCR on human Vδ1 γδ T cells (human).
T3 construct: whole, on cells; also called cell surface Vδ1 TCR; Vδ1-positive γδ T cells
Put plainly: flow cytometry on Vδ1 γδ T-cells, anti-human IgG secondary antibody, % cells bound IgG. A general note: Flow cytometry measures light scatter and fluorescence of single cells or particles in a stream.
Description: (§1) After washing, cells were incubated for a further 15 minutes with anti-human IgG secondary antibodies before washing and fixing. The amount of antibody bound to each cell type was determined by flow cytometry.

Assay [3] concerns the target PD-1 on PD-1+ NFAT Jurkat cells (Promega, JA2191) (UniProt Q15116 25-288, limits assumed). Put plainly: cell-based or functional assay.
Assay [4] has as its target T4, Cyno DV1/GV77 antigen, recombinant cynomolgus Vδ1 heterodimer (cynomolgus monkey).
T4 construct: also called cyno TRDV1; Cyno DV1-77; not shown: delta CDR3/J, TCR constant region, zipper and tag; the whole gamma chain GV77
Description: SPR, captured IgG, cyno DV1-GV77 flown over. (In general: Surface plasmon resonance follows binding to a sensor surface in real time, without labels.)

The target in assay [5] is T1, L1 (DV1-GV4), soluble human Vδ1/Vγ4 γδ …. Put plainly: SPR, captured IgG, human DV1-GV4 flown over.
The target of assay [6] is T4, Cyno DV1/GV77 antigen, recombinant …. Description: DELFIA ELISA, cyno antigen; heat map cell of the clone. (In general: An ELISA detects its analyte on a solid surface through an enzyme-linked reagent.)
Assay [7] addresses T1, L1 (DV1-GV4), soluble human Vδ1/Vγ4 γδ …. Description: DELFIA ELISA, 0.4 nM human TRDV1 antigen; heat map cell of the clone.
For assay [8] the target is unchanged. Description: SPR (Reichert 4SPR), antibody on Protein A chip, Vδ1 heterodimer at 6.25-100 nM as analyte.
Assay [9] concerns the target T4, Cyno DV1/GV77 antigen, recombinant …. The assay is described as above.
Assay [10] addresses T1, L1 (DV1-GV4), soluble human Vδ1/Vγ4 γδ …. Put plainly: SPR (Reichert 4SPR), antibody on Protein A chip.
In assay [11] the target is T4, Cyno DV1/GV77 antigen, recombinant …. Put plainly: SPR (Reichert 4SPR), antibody on Protein A chip.
Assay [12] has as its target T5, OX40 on OX40+ NFAT Jurkat cells (human, UniProt P43489).
T5 sequence (receptor, looked up): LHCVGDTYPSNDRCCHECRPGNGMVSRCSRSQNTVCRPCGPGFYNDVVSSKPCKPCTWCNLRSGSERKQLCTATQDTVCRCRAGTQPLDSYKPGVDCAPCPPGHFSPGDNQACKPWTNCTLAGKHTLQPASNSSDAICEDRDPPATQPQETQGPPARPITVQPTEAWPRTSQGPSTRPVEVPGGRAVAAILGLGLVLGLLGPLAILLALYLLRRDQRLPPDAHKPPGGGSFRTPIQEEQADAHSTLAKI
Description: cell-based or functional assay.

Assay [13] deals with T3, Vδ1 chain of the γδ TCR on human Vδ1 γδ …. Put plainly: flow cytometry on Vδ1 γδ T-cells, anti-human IgG secondary antibody, % cells bound IgG. The source holds these as a separate data set.
For assay [14], the target named is T1, L1 (DV1-GV4), soluble human Vδ1/Vγ4 γδ …. Put plainly: SPR (Reichert 4SPR), antibody on Protein A chip, antigen flown over. This is another data set of the same source.
Description: (§2) Recombinant human Vδ1 heterodimer or human OX40 was flown over the cell at a top concentration of 100 nM.
For the next assay, the target named is T6, Recombinant human OX40 (human, UniProt P43489 29-216, limits assumed).
T6 construct: also called CD134
T6 sequence (looked up): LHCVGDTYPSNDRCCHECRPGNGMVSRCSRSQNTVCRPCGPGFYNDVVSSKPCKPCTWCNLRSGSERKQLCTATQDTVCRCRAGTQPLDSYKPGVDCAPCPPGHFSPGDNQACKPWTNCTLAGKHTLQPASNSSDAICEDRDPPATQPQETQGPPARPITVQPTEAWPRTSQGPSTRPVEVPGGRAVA
Described as above.

The target in assay [15] is T7, OX40 on activated CD4 T-cells.
T7 construct: also called OX40+ CD4 T-cells
T7 chain: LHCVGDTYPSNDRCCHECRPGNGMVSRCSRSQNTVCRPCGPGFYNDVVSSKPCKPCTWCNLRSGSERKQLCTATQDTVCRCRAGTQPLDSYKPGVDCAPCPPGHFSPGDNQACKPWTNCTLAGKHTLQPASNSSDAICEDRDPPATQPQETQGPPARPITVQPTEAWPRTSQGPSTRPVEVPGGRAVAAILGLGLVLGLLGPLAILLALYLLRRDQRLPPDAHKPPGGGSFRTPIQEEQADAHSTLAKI
Put plainly: flow cytometry on anti-CD3/anti-CD28-activated CD4 T-cells, anti-human IgG secondary antibody, % cells bound IgG.
Description: Initially CD4+ T-cells were negatively selected by magnetic sorting from PBMC buffy coats extracted from whole blood. Following activation by anti-CD3/anti-CD28 antibodies conjugated to Dynabeads (Invitrogen), cell surface expression of OX40 was elevated on CD4 T-cells. […] After washing, cells were incubated for a further 15 minutes with anti-human IgG secondary antibodies before washing and fixing. The amount of antibody bound to each cell type was determined by flow cytometry.

In assay [16] the target is T3, Vδ1 chain of the γδ TCR on human Vδ1 γδ …. Description: flow cytometry on Vδ1 γδ T-cells, anti-human Fc secondary antibody, % IgG bound cells.
Description: (§3) After washing, cells were incubated for a further 15 minutes with anti-human Fc secondary antibodies before washing and fixing. The amount of antibody bound to each cell type was determined by flow cytometry.
For assay [17], the target named is T1, L1 (DV1-GV4), soluble human Vδ1/Vγ4 γδ …. Put plainly: SPR (Reichert 4SPR), antibody on Protein A chip, antigen flown over. This is another data set of the same source.
Description: (§4) Recombinant human Vδ1 heterodimer or human FAPα was flown over the cell at a concentration of 100 nM with the following parameters: 180 s association, 480 s dissociation, flowrate 25 μL/min, running buffer PBS+0.05% Tween 20. All experiments were performed at room temperature.
The target in the next assay is Recombinant human FAPα (human, UniProt Q12884 26-760). Described as above.
Assay [18] concerns the target T8, FAPα on FAPα+ fibroblasts (human, UniProt Q12884 1-760).
T8 construct: whole, on cells; also called FAPα+ target cells (BJ fibroblasts, human dermal fibroblasts)
Put plainly: flow cytometry on BJ fibroblasts, anti-human Fc secondary antibody, % IgG bound cells.
Description: as §3

For assay [19], the target named is T3, Vδ1 chain of the γδ TCR on human Vδ1 γδ …. Put plainly: flow cytometry on Vδ1 γδ T-cells, anti-human IgG secondary antibody, % IgG bound cells.
Description: as §1
The next assay addresses T9, Recombinant human MSLN (human, UniProt Q13421 296-580, limits assumed).
T9 construct: also called mesothelin
Put plainly: SPR (Reichert 4SPR), antibody on Protein A chip, antigen flown over; column head prints FAPα.

The target in assay [20] is T1, L1 (DV1-GV4), soluble human Vδ1/Vγ4 γδ …. Put plainly: SPR (Reichert 4SPR), antibody on Protein A chip, antigen flown over. The source holds these as a separate data set.
Description: (§5) Recombinant human Vδ1 heterodimer or human MSLN was flown over the cell at a top concentration of 100 nM with the following parameters: 180 s association, 480 s dissociation, flowrate 25 μL/min, running buffer PBS+0.05% Tween 20. All experiments were performed at room temperature.

As usually defined, the Kd is the free concentration of one partner at which half of the binding sites on the other are occupied at equilibrium, for simple one-to-one binding. The term EC50 (read off the curve) denotes the concentration that produces a half-maximal response. A higher EC50 (read off the curve) goes with weaker potency.

T1 sequence (main, as listed by the source): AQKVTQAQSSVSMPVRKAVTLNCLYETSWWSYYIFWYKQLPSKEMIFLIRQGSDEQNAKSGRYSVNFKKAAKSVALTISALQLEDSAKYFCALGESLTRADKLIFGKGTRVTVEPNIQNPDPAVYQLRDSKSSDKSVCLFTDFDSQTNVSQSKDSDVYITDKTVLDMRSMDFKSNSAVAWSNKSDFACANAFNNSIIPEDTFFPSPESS
T4 sequence (delta, as listed by the source limits assumed): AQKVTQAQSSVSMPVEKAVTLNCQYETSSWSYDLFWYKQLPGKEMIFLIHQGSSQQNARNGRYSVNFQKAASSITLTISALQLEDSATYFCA
T3 sequence (A0A1B0GX56 22-115, stated change not applied): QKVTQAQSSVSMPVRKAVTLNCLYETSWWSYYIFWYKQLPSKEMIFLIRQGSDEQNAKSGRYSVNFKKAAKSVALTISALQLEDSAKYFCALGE
T9 sequence (Q13421 other isoform, or with tags, fused parts or gaps limits assumed): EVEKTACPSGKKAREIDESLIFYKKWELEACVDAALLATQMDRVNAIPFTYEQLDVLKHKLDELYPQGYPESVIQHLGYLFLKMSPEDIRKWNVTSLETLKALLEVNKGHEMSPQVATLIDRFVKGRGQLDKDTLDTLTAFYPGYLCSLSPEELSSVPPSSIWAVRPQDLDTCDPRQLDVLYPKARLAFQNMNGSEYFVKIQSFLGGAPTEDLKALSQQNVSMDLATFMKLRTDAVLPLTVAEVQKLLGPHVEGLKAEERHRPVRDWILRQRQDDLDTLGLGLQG
T2 sequence (Q15116 25-167 limits assumed): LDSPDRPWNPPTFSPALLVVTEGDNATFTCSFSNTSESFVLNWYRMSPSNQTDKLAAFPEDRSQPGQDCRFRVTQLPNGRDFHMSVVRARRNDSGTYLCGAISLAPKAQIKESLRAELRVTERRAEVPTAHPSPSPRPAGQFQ
Sequence of PD-1 on PD-1+ NFAT Jurkat cells (Promega, JA2191) (Q15116 25-288 limits assumed): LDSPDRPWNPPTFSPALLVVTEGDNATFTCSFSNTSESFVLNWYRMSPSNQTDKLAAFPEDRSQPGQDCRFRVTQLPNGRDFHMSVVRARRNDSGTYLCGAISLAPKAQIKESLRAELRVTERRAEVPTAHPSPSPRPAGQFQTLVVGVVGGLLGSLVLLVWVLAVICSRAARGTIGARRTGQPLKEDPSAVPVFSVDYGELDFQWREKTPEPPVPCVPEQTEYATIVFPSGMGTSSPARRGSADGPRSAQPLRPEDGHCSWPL
Description for Recombinant human FAPα: as §4
Description for Recombinant human MSLN: as §5
Description for Recombinant human OX40: as §2
Description for Recombinant human PD-1: Recombinant human Vδ1 heterodimer or human PD-1 was flown over the cell at a top concentration of 100 nM.

B1: Anti-Vδ1xAnti-PD-1 (ADT1-4-2xpembrolizumab) bispecific antibody (bispecific antibody, human IgG1, kappa)
light: EIVLTQSPATLSLSPGERATLSCRASKGVSTSGYSYLHWYQQKPGQAPRLLIYLASYLESGVPARFSGSGSGTDFTLTISSLEPEDFAVYYCQHSRDLPLTFGGGTKVEIKRTVAAPSVFIFPPSDEQLKSGTASVVCLLNNFYPREAKVQWKVDNALQSGNSQESVTEQDSKDSTYSLSSTLTLSKADYEKHKVYACEVTHQGLSSPVTKSFNRGEC
heavy: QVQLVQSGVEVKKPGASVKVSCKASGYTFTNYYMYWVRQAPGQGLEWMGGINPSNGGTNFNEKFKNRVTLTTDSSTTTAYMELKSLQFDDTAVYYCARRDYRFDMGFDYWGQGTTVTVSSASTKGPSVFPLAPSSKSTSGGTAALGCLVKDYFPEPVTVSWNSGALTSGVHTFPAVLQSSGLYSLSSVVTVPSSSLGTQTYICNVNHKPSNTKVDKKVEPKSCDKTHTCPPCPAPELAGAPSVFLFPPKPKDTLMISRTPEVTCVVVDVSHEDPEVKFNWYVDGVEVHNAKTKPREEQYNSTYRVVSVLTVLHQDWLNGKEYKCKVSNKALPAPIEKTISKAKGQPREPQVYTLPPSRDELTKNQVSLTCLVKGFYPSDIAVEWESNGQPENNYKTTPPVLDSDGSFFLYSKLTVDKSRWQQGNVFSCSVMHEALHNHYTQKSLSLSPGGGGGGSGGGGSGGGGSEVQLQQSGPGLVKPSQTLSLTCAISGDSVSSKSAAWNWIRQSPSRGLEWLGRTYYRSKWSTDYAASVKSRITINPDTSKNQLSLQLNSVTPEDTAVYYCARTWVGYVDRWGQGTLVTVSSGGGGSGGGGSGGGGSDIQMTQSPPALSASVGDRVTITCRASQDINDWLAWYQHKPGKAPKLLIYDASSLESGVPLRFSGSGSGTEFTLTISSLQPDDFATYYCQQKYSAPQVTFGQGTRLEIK
notes: also called PD-1xADT1-4-2; Vδ1-PD-1 bispecific antibody
As for B1, the dissociation constant (Kd) amounted to 1.5 nM in assay [1] and 0.9 nM with Recombinant human PD-1. Besides, the concentration for a half-maximal effect (EC50 (read off the curve)) in assay [2] was about 0.7 nM. In addition, the “EC50 (read off the curve), PD-1/PD-L1 blockade reporter assay” value in assay [3] is about 1 nM.

B2: ADT1-4-8 (antibody, V domains shown)
VH: EVQLQQSGPGLVKPSQTLSLTCAISGDSVSSKSAAWNWIRQSPSRGLEWLGRTYYRSKWSTDYAASVKSRITINPDTSKNQLSLQLNSVTPEDTAVYYCARTWVGYADVWGQGTLVTVSS
VL: DIQMTQSPPALSASVGDRVTITCRASQDINDWLAWYQHKPGKAPKLLIYDASSLESGVPLRFSGSGSGTEFTLTISSLQPDDFATYYCQQKYSAPQVTFGQGTRLEIK
Take B2: the Kd in assay [4] was determined as 15.1 nM; in assay [5], 0.541 nM. The “ELISA signal (heat map)” value in assay [6] was found to be 139000; in [7], 42700.

B3: ADT1-4-2 (L74S) (antibody, V domains shown)
VH: EVQLQQSGPGLVKPSQTLSLTCAISGDSVSSKSAAWNWIRQSPSRGLEWLGRTYYRSKWSTDYAASVKSRITINPDTSKNQLSLQLNSVTPEDTAVYYCARTWVGYVDRWGQGTLVTVSS
VL: DIQMTQSPPALSASVGDRVTITCRASQDINDWLAWYQHKPGKAPKLLIYDASSLESGVPSRFSGSGSGTEFTLTISSLQPDDFATYYCQQKYSAPQVTFGQGTRLEIKR
notes: Captured on Protein A
Take B3: the Kd was found to be 4 nM in assay [8] and 61 nM in [9]. Moreover, the figures for the “fold reduction in affinity against ADT1-4-2” value in [10] and in assay [11] were about 11 fold and about 23 fold, respectively.

B4: Anti-Vδ1xanti-OX40 (ADT1-4-2xpogalizumab) bispecific antibody (bispecific antibody, human IgG1, kappa)
light: DIQMTQSPPALSASVGDRVTITCRASQDINDWLAWYQHKPGKAPKLLIYDASSLESGVPLRFSGSGSGTEFTLTISSLQPDDFATYYCQQKYSAPQVTFGQGTRLEIKRTVAAPSVFIFPPSDEQLKSGTASVVCLLNNFYPREAKVQWKVDNALQSGNSQESVTEQDSKDSTYSLSSTLTLSKADYEKHKVYACEVTHQGLSSPVTKSFNRGEC
heavy: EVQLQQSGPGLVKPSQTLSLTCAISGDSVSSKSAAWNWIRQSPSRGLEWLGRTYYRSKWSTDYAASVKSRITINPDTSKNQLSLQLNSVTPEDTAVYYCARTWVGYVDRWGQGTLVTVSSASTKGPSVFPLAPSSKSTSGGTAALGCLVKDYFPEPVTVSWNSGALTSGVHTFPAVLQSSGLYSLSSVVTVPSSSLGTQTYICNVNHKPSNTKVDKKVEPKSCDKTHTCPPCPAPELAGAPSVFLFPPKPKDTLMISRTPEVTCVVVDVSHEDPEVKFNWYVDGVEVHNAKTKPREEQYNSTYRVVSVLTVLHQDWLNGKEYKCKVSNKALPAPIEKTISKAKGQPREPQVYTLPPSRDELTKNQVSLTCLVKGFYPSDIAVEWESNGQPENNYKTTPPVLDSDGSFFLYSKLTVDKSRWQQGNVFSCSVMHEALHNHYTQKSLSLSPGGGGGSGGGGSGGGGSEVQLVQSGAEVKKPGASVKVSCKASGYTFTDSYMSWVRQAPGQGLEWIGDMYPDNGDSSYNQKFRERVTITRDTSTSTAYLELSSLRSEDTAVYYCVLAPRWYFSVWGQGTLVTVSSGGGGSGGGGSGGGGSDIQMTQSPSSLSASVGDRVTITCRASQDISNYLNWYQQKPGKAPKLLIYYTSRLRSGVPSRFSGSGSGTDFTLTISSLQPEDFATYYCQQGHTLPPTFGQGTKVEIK
notes: also called ADT1-4-2xOX40; Vδ1-OX40 bispecific antibody
Regarding B4, the “EC50 (read off the curve), OX40+ NFAT Jurkat activation assay” value in assay [12] was about 20 nM. Besides, the “EC50 (read off the curve)” value in assay [13] was about 0.3 nM; in [15] it was about 2 nM. Moreover, the equilibrium dissociation constant (Kd) worked out at 1.2 nM in assay [14] and 1.63 nM with Recombinant human OX40.

B5: Anti-Vδ1xFAPα (ADT1-4-2x sibrotuzumab) bispecific antibody (bispecific antibody, human IgG1, kappa)
light: DIQMTQSPPALSASVGDRVTITCRASQDINDWLAWYQHKPGKAPKLLIYDASSLESGVPLRFSGSGSGTEFTLTISSLQPDDFATYYCQQKYSAPQVTFGQGTRLEIKRTVAAPSVFIFPPSDEQLKSGTASVVCLLNNFYPREAKVQWKVDNALQSGNSQESVTEQDSKDSTYSLSSTLTLSKADYEKHKVYACEVTHQGLSSPVTKSFNRGEC
heavy: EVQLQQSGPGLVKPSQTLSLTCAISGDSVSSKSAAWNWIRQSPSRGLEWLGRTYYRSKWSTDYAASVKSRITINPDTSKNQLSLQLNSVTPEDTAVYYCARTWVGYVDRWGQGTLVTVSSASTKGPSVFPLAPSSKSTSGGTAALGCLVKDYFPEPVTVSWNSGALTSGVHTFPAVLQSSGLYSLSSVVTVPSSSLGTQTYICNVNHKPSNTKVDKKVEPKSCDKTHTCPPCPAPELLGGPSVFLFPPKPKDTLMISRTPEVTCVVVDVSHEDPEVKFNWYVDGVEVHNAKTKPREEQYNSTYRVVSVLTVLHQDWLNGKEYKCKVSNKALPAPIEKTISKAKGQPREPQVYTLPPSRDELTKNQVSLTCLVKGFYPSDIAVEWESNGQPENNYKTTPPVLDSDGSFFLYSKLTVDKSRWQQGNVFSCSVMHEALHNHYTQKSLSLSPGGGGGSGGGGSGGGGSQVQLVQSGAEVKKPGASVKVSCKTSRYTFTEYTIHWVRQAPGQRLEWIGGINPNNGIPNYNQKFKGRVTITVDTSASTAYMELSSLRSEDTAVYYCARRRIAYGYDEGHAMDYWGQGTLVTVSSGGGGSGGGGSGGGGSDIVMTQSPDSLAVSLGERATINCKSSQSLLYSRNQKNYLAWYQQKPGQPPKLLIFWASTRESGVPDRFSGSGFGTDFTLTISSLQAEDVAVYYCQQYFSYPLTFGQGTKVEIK
notes: also called ADT1-4-2 × FAP alpha; Vδ1-FAPα bispecific antibody
For the molecule B5, the figures for the “EC50 (read off the curve)” value in assay [16] and in [18] were about 0.5 nM and about 1 nM, respectively. Besides, the Kd in assay [17] was 0.26 nM; with Recombinant human FAPα, 1.4 nM.

B6: Anti-Vδ1xMSLN (ADT1-4-2xMSLN) bispecific antibody (bispecific antibody, human IgG1, kappa)
light: DIQMTQSPPALSASVGDRVTITCRASQDINDWLAWYQHKPGKAPKLLIYDASSLESGVPLRFSGSGSGTEFTLTISSLQPDDFATYYCQQKYSAPQVTFGQGTRLEIKRTVAAPSVFIFPPSDEQLKSGTASVVCLLNNFYPREAKVQWKVDNALQSGNSQESVTEQDSKDSTYSLSSTLTLSKADYEKHKVYACEVTHQGLSSPVTKSFNRGEC
heavy: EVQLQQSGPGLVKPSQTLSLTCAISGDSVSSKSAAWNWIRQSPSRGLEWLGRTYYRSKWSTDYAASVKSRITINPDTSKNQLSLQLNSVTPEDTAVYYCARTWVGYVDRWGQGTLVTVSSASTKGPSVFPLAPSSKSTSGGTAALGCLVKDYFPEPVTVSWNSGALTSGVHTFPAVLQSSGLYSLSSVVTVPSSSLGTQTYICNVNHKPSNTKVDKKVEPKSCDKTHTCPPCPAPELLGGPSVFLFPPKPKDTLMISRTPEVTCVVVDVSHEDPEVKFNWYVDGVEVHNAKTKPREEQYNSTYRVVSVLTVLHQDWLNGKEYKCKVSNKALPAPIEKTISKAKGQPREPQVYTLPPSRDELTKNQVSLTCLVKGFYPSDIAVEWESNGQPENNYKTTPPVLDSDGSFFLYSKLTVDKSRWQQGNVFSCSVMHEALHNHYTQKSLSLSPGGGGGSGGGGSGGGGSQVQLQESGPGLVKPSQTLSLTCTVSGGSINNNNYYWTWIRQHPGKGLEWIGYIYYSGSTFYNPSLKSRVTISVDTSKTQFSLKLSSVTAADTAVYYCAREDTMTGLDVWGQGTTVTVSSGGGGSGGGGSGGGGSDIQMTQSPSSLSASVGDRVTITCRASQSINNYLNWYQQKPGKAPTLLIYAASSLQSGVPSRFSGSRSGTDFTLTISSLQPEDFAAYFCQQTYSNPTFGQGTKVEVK
notes: also called ADT1-4-2 × MSLN; MSLN-Vδ1 bispecific antibody
On to B6, for which the “EC50 (read off the curve)” value in assay [19] was about 0.5 nM. Also, the Kd with Recombinant human MSLN is 0.87 nM; in assay [20], 0.026 nM.
